Results published in paper PMC8660796, “Structural and molecular basis for Cardiovirus 2A protein as a viral gene expression switch”.

T1: EMCV 2A wild type (Encephalomyocarditis virus (EMCV), UniProt P12296 902-1044)
T1 sequence: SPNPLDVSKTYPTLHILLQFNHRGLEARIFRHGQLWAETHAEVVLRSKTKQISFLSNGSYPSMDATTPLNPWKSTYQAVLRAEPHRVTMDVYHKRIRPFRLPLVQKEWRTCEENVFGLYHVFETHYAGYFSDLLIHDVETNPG


Tests used:
EMCV 2A wild type [1] = target: T1, EMCV 2A wild type; assay: EMSA; MST: 50 mM Tris-HCl pH 7.8, 150 mM NaCl, 10 mM MgCl2, 2 mM DTT, 0.05% Tween 20, 25 C; EMSA: 10 mM Tris-HCl pH 7.4, ~140 mM salt, 2 mM Mg acetate, 1 mM DTT, 5% glycerol, 100 ug/mL tRNA, 37 C; ITC: 50 mM Tris-HCl pH 7.4, 400 mM NaCl, 25 C; tweezers: 20 mM HEPES pH 7.6, 300 mM KCl, 5 mM MgCl2, 5 mM DTT, 0.05% Tween; details: protein: recombinant; tags: C-terminal GlySerLysHis6; label: 5' Cy5
EMCV 2A wild type [2] = target: T1, EMCV 2A wild type; assay: EMSA; binding restored; MST: 50 mM Tris-HCl pH 7.8, 150 mM NaCl, 10 mM MgCl2, 2 mM DTT, 0.05% Tween 20, 25 C; EMSA: 10 mM Tris-HCl pH 7.4, ~140 mM salt, 2 mM Mg acetate, 1 mM DTT, 5% glycerol, 100 ug/mL tRNA, 37 C; ITC: 50 mM Tris-HCl pH 7.4, 400 mM NaCl, 25 C; tweezers: 20 mM HEPES pH 7.6, 300 mM KCl, 5 mM MgCl2, 5 mM DTT, 0.05% Tween; details: protein: recombinant; tags: C-terminal GlySerLysHis6; label: 5' Cy5; pseudoknot-like
EMCV 2A wild type [3] = target: T1, EMCV 2A wild type; assay: MST; labelled 2A; MST: 50 mM Tris-HCl pH 7.8, 150 mM NaCl, 10 mM MgCl2, 2 mM DTT, 0.05% Tween 20, 25 C; EMSA: 10 mM Tris-HCl pH 7.4, ~140 mM salt, 2 mM Mg acetate, 1 mM DTT, 5% glycerol, 100 ug/mL tRNA, 37 C; ITC: 50 mM Tris-HCl pH 7.4, 400 mM NaCl, 25 C; tweezers: 20 mM HEPES pH 7.6, 300 mM KCl, 5 mM MgCl2, 5 mM DTT, 0.05% Tween; details: protein: recombinant; tags: C-terminal GlySerLysHis6; label: 5' fluorophore (Dylight 650 in MST, A647/Cy5 in EMSA); unlabelled when 2A is labelled; stem-loop

| Binder | binding result (EMCV 2A wild type [1]) | other results |
| --- | --- | --- |
| EMCV 3 G7C (structured_RNA) RNA: GGGUUUUUCAGACUCAACGAGCGGCAGUGUCAUCAAUGGCUCAAACCCUACUGCCGAA | no binding |  |
| EMCV 3 G7C+C37G (structured_RNA) RNA: GGGUUUUUCAGACUCAACGAGCGGCAGUGUCAUCAAUGGCUCAAACCGUACUGCCGAA |  | binding result (EMCV 2A wild type [2]): binds |
| EMCV 3 C37G (structured_RNA) RNA: GGGUUUUUCAGACUCAAGGAGCGGCAGUGUCAUCAAUGGCUCAAACCGUACUGCCGAA | no binding |  |
| AGCGGCAGUGUCAUCAAUGGCUCAAACCCUACUGCCGAA (structured_RNA) [EMCV 4] |  | binding result (EMCV 2A wild type [3]): no binding |
